Key:
Assay in all cases: SPR (Biacore T200), 100 nM mAb on NGF chip, similarity to parent mAb
human NGF = biological target: T1, human NGF (human, UniProt P01138 122-241)
T1 construct: also called human Nerve Growth Factor; hN
T1 chain: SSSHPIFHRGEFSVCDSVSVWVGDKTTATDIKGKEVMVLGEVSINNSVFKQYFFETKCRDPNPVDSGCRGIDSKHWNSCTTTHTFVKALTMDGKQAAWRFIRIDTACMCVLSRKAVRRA
How it was run: (§1)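 CDR alanine-scan mutants of the anti-NGF mAb were each run at 100 nM over an NGF-coated Biacore T200 chip. A threshold band was set from the mean response units of four parent-mAb replicates ±3 SD, covering both on- and off-rate phases. The score is the percentage of each mutant's data points falling inside that band.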

canine NGF = biological target: T2, canine NGF (canine, UniProt Q29074 110-229 (pig entry), limits assumed)
T2 construct: The protein was secreted from CHO cells and purified; also called cNGF; canine β-NGF
T2 chain: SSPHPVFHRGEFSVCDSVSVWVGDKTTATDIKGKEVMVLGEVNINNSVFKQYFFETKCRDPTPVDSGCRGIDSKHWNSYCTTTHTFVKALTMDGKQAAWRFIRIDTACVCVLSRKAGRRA
How it was run: as §1

rat NGF = biological target: T3, rat NGF (rat, UniProt P25427 122-241)
T3 construct: also called rN
T3 sequence (P25427 122-241 limits assumed): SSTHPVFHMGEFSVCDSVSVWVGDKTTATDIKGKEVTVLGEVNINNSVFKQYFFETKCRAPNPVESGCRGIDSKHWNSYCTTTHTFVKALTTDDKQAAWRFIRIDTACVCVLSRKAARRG
How it was run: as §1

B1: can48L2VH_F113A (antibody, V domains shown)
VH: EVQLVESGGDLVKPGGSLRLSCVASGFTFSTYGINWVRQAPGKGLQWVAYISSGGSSTYYADPVKGRFTISRDDAKNMLYLQMNSLRAEDTAIYYCAGSRYTYAYGGGYEFHAWGQGTLVTVSS
VL: QAVLNQPASVSGALGQKVTISCSGSTMDIDIFGVSWYQQLPGKAPKLLVDSDGDRPSGIPDRFSGSRSGNSGTLTITGLQAEDEADYHCQSGDSTLGALAIFGGGTHVTVL
notes: CDR scanning mutant of ZTS-842 (48L2)
Human NGF
  Percent Similarity Score (KD on hN): 98.5%
Canine NGF
  Percent Similarity Score (KD on cN): 33.7%
Rat NGF
  Percent Similarity Score (KD on rN): 32.2%

B2: can48L2VH_G55A (antibody, V domains shown)
VH: EVQLVESGGDLVKPGGSLRLSCVASGFTFSTYGINWVRQAPGKGLQWVAYISSGASSTYYADPVKGRFTISRDDAKNMLYLQMNSLRAEDTAIYYCAGSRYTYAYGGGYEFHFWGQGTLVTVSS
VL: QAVLNQPASVSGALGQKVTISCSGSTMDIDIFGVSWYQQLPGKAPKLLVDSDGDRPSGIPDRFSGSRSGNSGTLTITGLQAEDEADYHCQSGDSTLGALAIFGGGTHVTVL
notes: as for B1
Human NGF
  Percent Similarity Score (KD on hN): 100%
Canine NGF
  Percent Similarity Score (KD on cN): 99.3%
Rat NGF
  Percent Similarity Score (KD on rN): 99.7%

B3: can48L2VH_H112A (antibody, V domains shown)
VH: EVQLVESGGDLVKPGGSLRLSCVASGFTFSTYGINWVRQAPGKGLQWVAYISSGGSSTYYADPVKGRFTISRDDAKNMLYLQMNSLRAEDTAIYYCAGSRYTYAYGGGYEFAFWGQGTLVTVSS
VL: QAVLNQPASVSGALGQKVTISCSGSTMDIDIFGVSWYQQLPGKAPKLLVDSDGDRPSGIPDRFSGSRSGNSGTLTITGLQAEDEADYHCQSGDSTLGALAIFGGGTHVTVL
notes: as for B1
Human NGF
  Percent Similarity Score (KD on hN): 51.2%
Canine NGF
  Percent Similarity Score (KD on cN): 40.3%
Rat NGF
  Percent Similarity Score (KD on rN): 98.5%

B4: can48L2VH_G54A (antibody, V domains shown)
VH: EVQLVESGGDLVKPGGSLRLSCVASGFTFSTYGINWVRQAPGKGLQWVAYISSAGSSTYYADPVKGRFTISRDDAKNMLYLQMNSLRAEDTAIYYCAGSRYTYAYGGGYEFHFWGQGTLVTVSS
VL: QAVLNQPASVSGALGQKVTISCSGSTMDIDIFGVSWYQQLPGKAPKLLVDSDGDRPSGIPDRFSGSRSGNSGTLTITGLQAEDEADYHCQSGDSTLGALAIFGGGTHVTVL
notes: as for B1
Human NGF
  Percent Similarity Score (KD on hN): 100%
Canine NGF
  Percent Similarity Score (KD on cN): 98.1%
Rat NGF
  Percent Similarity Score (KD on rN): 99.3%

B5: can9L12VL_N27A (antibody, V domains shown)
VH: EVQLVESGGDLVKPGGSLRLSCVASGFTFSSHGMHWVRQSPGKGLQWVAVINSGGSSTYYTDAVKGRFTISRDNAKNTVYLQMNSLRAEDTAMYYCAKESVGGWEQLVGPHFDYWGQGTLVIVSS
VL: QSVLTQPTSVSGSLGQRVTISCSGSTANIGILGASWYQLFPGKAPKLLVYGNGNRPSGVPDRFSGADSGDSVTLTITGLQAEDEADYYCQSFDTTLGAHVFGGGTHLTVL
Human NGF
  Percent Similarity Score (KD on hN): 100%
Canine NGF
  Percent Similarity Score (KD on cN): 100%
Rat NGF
  Percent Similarity Score (KD on rN): 99.9%

B6: can9L12VL_S91A (antibody, V domains shown)
VH: EVQLVESGGDLVKPGGSLRLSCVASGFTFSSHGMHWVRQSPGKGLQWVAVINSGGSSTYYTDAVKGRFTISRDNAKNTVYLQMNSLRAEDTAMYYCAKESVGGWEQLVGPHFDYWGQGTLVIVSS
VL: QSVLTQPTSVSGSLGQRVTISCSGSTNNIGILGASWYQLFPGKAPKLLVYGNGNRPSGVPDRFSGADSGDSVTLTITGLQAEDEADYYCQAFDTTLGAHVFGGGTHLTVL
Human NGF
  Percent Similarity Score (KD on hN): 11.6%
Canine NGF
  Percent Similarity Score (KD on cN): 39.3%
Rat NGF
  Percent Similarity Score (KD on rN): 14.5%

B7: can9L12VL_N28A (antibody, V domains shown)
VH: EVQLVESGGDLVKPGGSLRLSCVASGFTFSSHGMHWVRQSPGKGLQWVAVINSGGSSTYYTDAVKGRFTISRDNAKNTVYLQMNSLRAEDTAMYYCAKESVGGWEQLVGPHFDYWGQGTLVIVSS
VL: QSVLTQPTSVSGSLGQRVTISCSGSTNAIGILGASWYQLFPGKAPKLLVYGNGNRPSGVPDRFSGADSGDSVTLTITGLQAEDEADYYCQSFDTTLGAHVFGGGTHLTVL
Human NGF
  Percent Similarity Score (KD on hN): 2.1%
Canine NGF
  Percent Similarity Score (KD on cN): 6.6%
Rat NGF
  Percent Similarity Score (KD on rN): 2.5%

B8: can9L12VL_N52A (antibody, V domains shown)
VH: EVQLVESGGDLVKPGGSLRLSCVASGFTFSSHGMHWVRQSPGKGLQWVAVINSGGSSTYYTDAVKGRFTISRDNAKNTVYLQMNSLRAEDTAMYYCAKESVGGWEQLVGPHFDYWGQGTLVIVSS
VL: QSVLTQPTSVSGSLGQRVTISCSGSTNNIGILGASWYQLFPGKAPKLLVYGAGNRPSGVPDRFSGADSGDSVTLTITGLQAEDEADYYCQSFDTTLGAHVFGGGTHLTVL
Human NGF
  Percent Similarity Score (KD on hN): 100%
Canine NGF
  Percent Similarity Score (KD on cN): 100%
Rat NGF
  Percent Similarity Score (KD on rN): 100%

B9: can9L12VL_V100A (antibody, V domains shown)
VH: EVQLVESGGDLVKPGGSLRLSCVASGFTFSSHGMHWVRQSPGKGLQWVAVINSGGSSTYYTDAVKGRFTISRDNAKNTVYLQMNSLRAEDTAMYYCAKESVGGWEQLVGPHFDYWGQGTLVIVSS
VL: QSVLTQPTSVSGSLGQRVTISCSGSTNNIGILGASWYQLFPGKAPKLLVYGNGNRPSGVPDRFSGADSGDSVTLTITGLQAEDEADYYCQSFDTTLGAHAFGGGTHLTVL
Human NGF
  Percent Similarity Score (KD on hN): 15.7%
Canine NGF
  Percent Similarity Score (KD on cN): 58.2%
Rat NGF
  Percent Similarity Score (KD on rN): 20.2%

B10: can9L12VL_T26A (antibody, V domains shown)
VH: EVQLVESGGDLVKPGGSLRLSCVASGFTFSSHGMHWVRQSPGKGLQWVAVINSGGSSTYYTDAVKGRFTISRDNAKNTVYLQMNSLRAEDTAMYYCAKESVGGWEQLVGPHFDYWGQGTLVIVSS
VL: QSVLTQPTSVSGSLGQRVTISCSGSANNIGILGASWYQLFPGKAPKLLVYGNGNRPSGVPDRFSGADSGDSVTLTITGLQAEDEADYYCQSFDTTLGAHVFGGGTHLTVL
Human NGF
  Percent Similarity Score (KD on hN): 100%
Canine NGF
  Percent Similarity Score (KD on cN): 100%
Rat NGF
  Percent Similarity Score (KD on rN): 99.2%

B11: can9L12VL_O90A (antibody, V domains shown)
VH: EVQLVESGGDLVKPGGSLRLSCVASGFTFSSHGMHWVRQSPGKGLQWVAVINSGGSSTYYTDAVKGRFTISRDNAKNTVYLQMNSLRAEDTAMYYCAKESVGGWEQLVGPHFDYWGQGTLVIVSS
VL: QSVLTQPTSVSGSLGQRVTISCSGSTNNIGILGASWYQLFPGKAPKLLVYGNGNRPSGVPDRFSGADSGDSVTLTITGLQAEDEADYYCASFDTTLGAHVFGGGTHLTVL
Human NGF
  Percent Similarity Score (KD on hN): 19.3%
Canine NGF
  Percent Similarity Score (KD on cN): 79.2%
Rat NGF
  Percent Similarity Score (KD on rN): 24.2%

B12: can9L12VL_T95A (antibody, V domains shown)
VH: EVQLVESGGDLVKPGGSLRLSCVASGFTFSSHGMHWVRQSPGKGLQWVAVINSGGSSTYYTDAVKGRFTISRDNAKNTVYLQMNSLRAEDTAMYYCAKESVGGWEQLVGPHFDYWGQGTLVIVSS
VL: QSVLTQPTSVSGSLGQRVTISCSGSTNNIGILGASWYQLFPGKAPKLLVYGNGNRPSGVPDRFSGADSGDSVTLTITGLQAEDEADYYCQSFDTALGAHVFGGGTHLTVL
Human NGF
  Percent Similarity Score (KD on hN): 100%
Canine NGF
  Percent Similarity Score (KD on cN): 100%
Rat NGF
  Percent Similarity Score (KD on rN): 99.9%

B13: can9L12VL_T94A (antibody, V domains shown)
VH: EVQLVESGGDLVKPGGSLRLSCVASGFTFSSHGMHWVRQSPGKGLQWVAVINSGGSSTYYTDAVKGRFTISRDNAKNTVYLQMNSLRAEDTAMYYCAKESVGGWEQLVGPHFDYWGQGTLVIVSS
VL: QSVLTQPTSVSGSLGQRVTISCSGSTNNIGILGASWYQLFPGKAPKLLVYGNGNRPSGVPDRFSGADSGDSVTLTITGLQAEDEADYYCQSFDATLGAHVFGGGTHLTVL
Human NGF
  Percent Similarity Score (KD on hN): 52.5%
Canine NGF
  Percent Similarity Score (KD on cN): 100%
Rat NGF
  Percent Similarity Score (KD on rN): 40%

Source: patent US20210221899A1 (published 2021)
